Test results published in publication PMC7027902.

How the values were obtained:
[1] = molecular target: soluble biotinylated cognate peptide-MHC of the A6 TCR; assay: BLI; Octet RED96; biotinylated pMHC (5 µg/mL) loaded on streptavidin tips; TCR in twofold serial dilutions from 200 nM, 900 s association, 600 s dissociation; PBS with kinetic buffer; 1:1 binding model
[2] = molecular target: soluble biotinylated cognate peptide-MHC of the DMF5 TCR; assay: as above

| Kd [1] [µM] | koff [1] [s⁻¹] | Kd [2] [µM] | koff [2] [s⁻¹] | Substance |
| --- | --- | --- | --- | --- |
| 0.0083 | 0.000416 |  |  | wild-type high-affinity A6 TCR (soluble α/β heterodimer) |
|  |  | 0.0316 | 7.4e-05 | wild-type DMF5 TCR (soluble α/β heterodimer) |
